Laboratory results published in PMC7595197.

Biological target: AtaT (G108D) (enterohemorrhagic E. coli O157:H7)
Experiment: crystal structure

Substance: AtaT (G108D) (enzyme)
- stoichiometry N: 2
